The values below come from article PMC9825171 (Nucleic Acids Research, 2022).

In data set [1] the target is RBPJ (53–474) (Mus musculus, UniProt P31266). The experiment in a line: ITC binding of L3MBTL3 constructs and peptides to native RBPJ. The note with it: 25°C; for Kd / K: 50 mM sodium phosphate pH 6.5, 150 mM NaCl, one site binding model; for Kd: mean of at least three independent experiments; for K: mean of at least three independent experiments ± SD, NBD = no binding detected.

For data set [2], the target named is RBPJ. The note with it: read-out: affinity for RBPJ; ref [19],[20]; cited from earlier work.
The mark [3] stands for this setting: pH 6.5, mean of at least three independent experiments ± SD.

RBPJ (53–474), sequence (P31266 53-474): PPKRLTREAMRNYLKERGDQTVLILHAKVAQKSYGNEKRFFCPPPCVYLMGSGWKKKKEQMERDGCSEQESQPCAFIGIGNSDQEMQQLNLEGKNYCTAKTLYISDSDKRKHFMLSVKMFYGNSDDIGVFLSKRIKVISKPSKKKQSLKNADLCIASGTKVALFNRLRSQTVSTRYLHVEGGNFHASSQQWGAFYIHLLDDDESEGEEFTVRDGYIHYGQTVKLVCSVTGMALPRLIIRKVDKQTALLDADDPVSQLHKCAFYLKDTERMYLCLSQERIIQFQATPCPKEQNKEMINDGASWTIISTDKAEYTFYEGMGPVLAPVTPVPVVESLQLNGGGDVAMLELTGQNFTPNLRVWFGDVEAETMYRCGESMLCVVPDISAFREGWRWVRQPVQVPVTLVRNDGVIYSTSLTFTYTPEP

B1: 1–197: human L3MBTL3 fragment, the N-terminus (1–197) (protein, UniProt Q96JM7 1-197, looked up, fragment)
chain: MTESASSTSGQEFDVFSVMDWKDGVGTLPGSDLKFRVNEFGALEVITDENEMENVKKATATTTWMVPTAQEAPTSPPSSRPVFPPAYWTSPPGCPTVFSEKTGMPFRLKDPVKVEGLQFCENCCQYGNVDECLSGGNYCSQNCARHIKDKDQKEERDVEEDNEEEDPKCSRKKKPKLSLKADTKEDGEERDDEMENK
Regarding B1, in data set [1], the Kd is 1500 nM and the K is given as 6.6 ± 0.3 × 10^5 M^−^1. In data set [1] (setting [3]), the “ΔG°” value is -7.9 ± 0.03 kcal/mol, the “ΔH°” value is listed as -7.2 ± 0.1 kcal/mol and the “–TΔS°” value was -0.7 ± 0.1 kcal/mol.

B2: RITA1: corepressor, RBPJ interacting Tubulin associated protein 1 (protein, UniProt Q96K30 1-269, looked up)
RBPJ-interacting and …: MKTPVELAVSGMQTLGLQHRCRGGYRVKARTSYVDETLFGSPAGTRPTPPDFDPPWVEKANRTRGVGKEASKALGAKGSCETTPSRGSTPTLTPRKKNKYRPISHTPSYCDESLFGSRSEGASFGAPRMAKGDAAKLRALLWTPPPTPRGSHSPRPREAPLRAIHPAGPSKTEPGPAADSQKLSMGGLHSSRPLKRGLSHSLTHLNVPSTGHPATSAPHTNGPQDLRPSTSGVTFRSPLVTSRARSVSISVPSTPRRGGATQKPKPPWK
With B2, in data set [2], the Kd was approximately 1000 nM.

B3: 198–523: human L3MBTL3 fragment, the MBT domains (198–523) (protein, UniProt Q96JM7 198-523, looked up, fragment)
chain: QDVRILRGSQRARRKRRGDSAVLKQGLPPKGKKAWCWASYLEEEKAVAVPAKLFKEHQSFPYNKNGFKVGMKLEGVDPEHQSVYCVLTVAEVCGYRIKLHFDGYSDCYDFWVNADALDIHPVGWCEKTGHKLHPPKGYKEEEFNWQTYLKTCKAQAAPKSLFENQNITVIPSGFRVGMKLEAVDKKNPSFICVATVTDMVDNRFLVHFDNWDESYDYWCEASSPHIHPVGWCKEHRRTLITPPGYPNVKHFSWDKYLEETNSLPAPARAFKVKPPHGFQKKMKLEVVDKRNPMFIRVATVADTDDHRVKVHFDGWNNCYDYWIDAD
For B3, in data set [1], the “binding to RBPJ, in words” value is reported as “no detectable binding” and the K result was “NBD”.

B4: 1–523: human L3MBTL3 fragment, N-terminal region through the MBT domains (residues 1–523) (protein, UniProt Q96JM7 1-523, looked up, fragment)
chain: MTESASSTSGQEFDVFSVMDWKDGVGTLPGSDLKFRVNEFGALEVITDENEMENVKKATATTTWMVPTAQEAPTSPPSSRPVFPPAYWTSPPGCPTVFSEKTGMPFRLKDPVKVEGLQFCENCCQYGNVDECLSGGNYCSQNCARHIKDKDQKEERDVEEDNEEEDPKCSRKKKPKLSLKADTKEDGEERDDEMENKQDVRILRGSQRARRKRRGDSAVLKQGLPPKGKKAWCWASYLEEEKAVAVPAKLFKEHQSFPYNKNGFKVGMKLEGVDPEHQSVYCVLTVAEVCGYRIKLHFDGYSDCYDFWVNADALDIHPVGWCEKTGHKLHPPKGYKEEEFNWQTYLKTCKAQAAPKSLFENQNITVIPSGFRVGMKLEAVDKKNPSFICVATVTDMVDNRFLVHFDNWDESYDYWCEASSPHIHPVGWCKEHRRTLITPPGYPNVKHFSWDKYLEETNSLPAPARAFKVKPPHGFQKKMKLEVVDKRNPMFIRVATVADTDDHRVKVHFDGWNNCYDYWIDAD
Regarding B4, in data set [1], the Kd was 1900 nM and the K was 5.4 ± 0.9 × 10^5 M^−^1. In data set [1] (setting [3]), the “ΔG°” value is -7.7 ± 0.2 kcal/mol and the “–TΔS°” value worked out at 2.9 ± 1.8 kcal/mol.
